Measurements: the nanobody polyreactivity screen of Harvey et al. (2022)

assay: yeast display, Sf9 membrane polyspecificity reagent, FACS + sequencing; frameworks hold sequencing errors
Method in brief: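 Nanobodies came from a synthetic yeast display library in Saccharomyces cerevisiae BJ5465, induced with galactose for 36–48 hours and stained for 1 hour at 4 °C with 10% biotinylated, detergent-solubilized Sf9 membrane reagent. Cells were enriched on streptavidin microbeads and then FACS-sorted, with low and high (top ~1%) gates set on anti-HA fluorescence for expression and streptavidin fluorescence for reagent binding. Each polyreactivity label reflects the gate a clone came from. Genes were amplified by colony PCR, sequenced by MiSeq 2 × 250 and filtered by CDR length.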

Sequence	polyreactivity (PSR sort gate)
QVQLVESGRGLVQAGGSLRLSCAASGLTFTPYAMGWYRQAPGKERELVAAITSGGRTYYADSVKGRFTSSRDNAKNTVYLQMNSLKPEDTAVYYCNADPEYSWWYYGLDYWGQGTQVTVSW	high polyreactivity
QVQLVESGGGLVQAGGSLRVSCAASGRNFYYYAMGGYRQAPGKERELVAAINWSGGGTYYADSVKGRFTISRDNAKNTVYFQMNSLKPEDTAVYYCAAGFRYRYYWGQGTQVTVSS	high polyreactivity
QVQLVESGGGLDQAGGSLRLSCAASGFILGDYAMGWYRQAPGKERELVAAITSSGGSTYYADSVKGRFTISRDNAKNTVYFQMNSLKPEDTAVYYCNTVYVYGPEYDYWGQGTQVTVSS	high polyreactivity
QVQLEESGGGLVQAGGSLRLSSAASGRTFYDNTMGWYRQSPVKERELVAAISRGGSTYADSVKGRFTISRDNAKNSVYLQMNSLKPEDTAVYYCAAVPRYQYGYWGQGTQVTVSS	low polyreactivity
QVQLVESGGGLVQAGGSLRLSCAASGSIFGPYAMGWYRQAPGKERELVAAITWTGGRTYYADSVKGRFTISRDNAKNTVYLQMNSLKPVDTAVYDCAADYSPSTWYLYYTLYYYWGEGTQVTVSS	low polyreactivity
QLQLVESLRGLVQAGGSLRLSCAASVSIIGPNAMGLYRQATGKERELVAAITLSGGSTYYADSVKGRFTISRDNAKNTVYLQMNSLKPEDTAVYYCNADLLPADAPLWVTGGDYWGQGTQVTESS	low polyreactivity
QVQLVESGGGLVQAGGSLRLSCAASGSTFYPYAMGWYRQAPGKERELVAAISSGGSTYYADSVKGRFTISRDNAKNTVYLQMNSLKPEDTAVYYCAADFYYAYYWGQGTEVTVSS	low polyreactivity
QVQLVESGGGLVQAGGSLRLSCAASGFIFDWYTMGWYRQAPGKERELVAAITIGGSTDYADSVKGRFTISRDNAKNTVYLLMNSLKPEDTAVYYCNALWYLSGTWYDYWGQGTQVTVSS	low polyreactivity
QVQLVESGAGLVQAGGSLRLSCAASGFIFRQYAMGWYRQAPGQERELVAAISWSGGSTYYADSVKGRFTISRDNAKNTVYLQKNSLKPEDTAVYYCNVLTPPTDYDYWGQGTQVTVSS	high polyreactivity
QVQLVESGGGLVQAGGSLRLSCAASGRIFGINAMGCYRQAPGKERELVAAINWSGGSTYYADSVKGRFTISRDNAKNTVYLQMNSLKPEDTEVYYCAAQKYKRVGYWGQVTQVTVSS	high polyreactivity
QVQLVESGGGLVQAGGSLRLSCAASGRTFTVYAMGWYRQAPGKERELVAAIRRRGGSTYYADSVKGRFTISRDNAKNTVYLQMNSLKPEDTAVYYCAADNWYKKQKRPSAYDYWGQGTQVTVSS	high polyreactivity
QDQLVESGGGLVQAGGSLRLSCASSGLIFYTSSMGWYSQAPGKESGLVAAITRSDSSTYYADSVKGRFTISRDNATNTVYLQMTSLKPEDPAVYYFATPSVFLFSEYDYWGQGTKVTVSS	low polyreactivity
QVQLVESGGGLVQAGGSLRLSCAASGSTLPVNAMGWYRQAPGKERELVAAINRDGSTNYADSVKRPFTISRDNAKNNVYLQMNCLKPDDTAVYYCGADGFGYPGKRYDYWGHGTQVTVSS	low polyreactivity
QVQLVESGGGLVQAGGSLRLSCPASGFTFDVNAMGSYRQAPGKERELVATISSNGGSTYYADSVKGRFTISRDNAKNTVYLQMNSLKPEDTAVYYCNRGEIYFDNDDFDYWGQGTQVTVSS	low polyreactivity
QVQLVESGGGLVQAGGSLRLSCAPSGSIFGYYTMGCYRQAPGKEREFVAAISYSGGSTYYADSVKGRFTISRDNANNTVYLQMNSLKPEDTAVYYCAARLYYFRGFKYYYWGQGTQVTVSS	low polyreactivity
QVQLVESGGGLVQAGGSLRLSCAASGRTFPPNSMAWYRQAPGKERELVAGITRGGNTYYADSVKGRFTISRDNAKNTVYLQMNSLKPEDTAVYYCAAERRYYSWYWYRVNYCGQGTQVTVSS	high polyreactivity
QVQLVESGGGLVQAGGSLRLSCAASGITFRGNVMGWYRQAPGKERELVAAISGSSGRTYYADSVKGRFTISRDNAKNTVYLQMNSLKPEDTAVYYCAAYYGTKYDYWGQGTQVTVSS	high polyreactivity
